Substrate in the data set: CC(=O)N[C@H]1[C@H](O[C@H]2[C@H](O[C@H](C)C(=O)N[C@@H](C)C(=O)N[C@H](CCC(=O)N[C@@H](CCC[C@@H](N)C(=O)O)C(=O)N[C@H](C)C(=O)O)C(=O)O)[C@@H](NC(C)=O)[C@@H]3OC[C@H]2O3)O[C@H](CO)[C@@H](O)[C@@H]1O
The data set is described as follows: purified protein. It is filed as biochemical, Drosophila melanogaster. The settings on record: 20 mM HEPES pH 7.4, 2.5 mM EDTA, 37 °C, substrate 10–500 μM, releases terminal D-Ala.

As a reminder, the Km is the concentration of substrate that gives half-maximal velocity. Broadly, the kcat is the number of substrate molecules converted per active site and unit of time at saturation.

B1: rPGRP-SA (recombinant Drosophila PGRP-SA) (Drosophila melanogaster) (protein)
chain: GKSRQRSPANCPTIKLKRQWGGKPSLGLHYQVRPIRYVVIHHTVTGECSGLLKCAEILQNMQAYHQNELDFNDISYNFLIGNDGIVYEGTGWGLRGAHTYGYNAIGTGIAFIGNFVDKLPSDAALQAAKDLLACGVQQGELSEDYALIAGSQVISTQSPGLTLYNEIQEWPHWLSNP
notes: full-length secreted protein, own signal peptide removed, 177 residues plus C-terminal 6xHis tag; baculovirus, Hi-5 insect cells; monomer by gel filtration
In the case of B1, the Km is 21.4 ± 1.8 µM and the catalytic constant (kcat) was 0.000133 ± 5.6e-06 s⁻¹.

For the origin of these results see article PMC515366, “A Drosophila Pattern Recognition Receptor Contains a Peptidoglycan Docking Groove and Unusual L,D-Carboxypeptidase Activity” (PLoS Biology, 2004).
